We go through three molecules from patent publication US12527879B2, “Ligands targeted to epidermal growth factor receptors and compositions for use in treating tumors” (priority 2019, dated 2026).

One series deals with T1, human EGFR-Ex-Fc (Homo sapiens, UniProt P00533).
T1 construct: the extracellular domain of human EGFR-Fc fusion protein (EGFR-Ex-Fc); purchased R&D system
In words: Recognition of human EGFR-Ex-Fc by EGFR-s10. Type of series: binding. The text has this:
(§1) EGFR s10 recognized both human and marine EGFR-Ex-Fc. This feature eliminates any requirements for a surrogate molecule to evaluate toxicity in murine platforms. After validating internalization of EGFR-s10 in target cells, we fabricated LTLs loaded with doxorubicin or vinorelbine (EGFR-s10-LD and EGFR-s10-LV, respectively) using a thin film method and PEGylation of EGFR-s10. […] The zeta-potentials were all higher than required to prevent formation of aggregates. […] In summary, EGFR-specific binding of EGFR-s10 was retained through chemical processing, and the resulting LTLs fulfilled the requirements of anti-neoplastic liposomal drugs, indicating suitability for further development.

The test system of series [1] is Ca9-22 cells. Description: Endocytosis assay of soluble EGFR-s10 scFv, Ca9-22. It is filed as cell-based, human. As to conditions: 30 min, confocal microscopy. As to the method: (§2) Cells were incubated with EGFR-s10 for 30 min at 4° C. or 37° C. Following a PBS wash, the cells were fixed with 2% paraformaldehyde and permeabilized with 0.1% TRITON® X-100. Blocking was accomplished by adding 3% BSA. Mouse ANTI-FLAG antibodies were added to the cells and labeled with FITC anti-mouse IgG. Nuclei were stained with DAPI, and cells were observed on a confocal microscope (TCS-SP5, Leica).
(§3) We produced soluble scFv from EGFR-PC10 and designated it as EGFR-s10. Target binding and internalization are essential requirements of LTL-targeting moieties. We investigated these features of EGFR-s10 in SCCHN cancer cell lines. FaDu cells and Ca9-22 cells were separately incubated with EGFR-s10 at 4° C. or 37° C. for 30 min and compared with isotypic IgG controls. […] (FIGS. 3A-B).

Series [2] relates to FaDu cells. Description: Endocytosis assay of soluble EGFR-s10 scFv, FaDu. It is filed as cell-based, human. As to conditions: 30 min, confocal microscopy. As for the experimental part:
as §2, §3

The next series addresses T2, marine EGFR-Ex-Fc (Mus musculus, UniProt Q01279).
T2 construct: the extracellular domain of human EGFR-Fc fusion protein (EGFR-Ex-Fc)
In words: Recognition of murine EGFR-Ex-Fc by EGFR-s10. Type of series: binding.
Description: as §1

Series [3] in a line: Particle size by dynamic light scattering. Type of series: physicochemical. As to conditions: DLS at 25° C. As to the method:
(§4) The average particle size of liposomes was determined by dynamic light scattering (DLS) at 25° C. using Malvern Zetasizer Nano ZS (Malvern instruments) with a 633-nm laser and a detection angle of 90°. The zeta-potential of the liposomes was measured using laser Doppler electrophoresis on the Malvern Zetasizer Nano ZS.

Series [4] relates to Ca9-22 subcutaneous xenograft. Description: Murine subcutaneous Ca9-22 xenograft therapeutic assay. To be noted: 1.5 mg/kg twice a week for 4 weeks. Type of series: in vivo. As to the method:
FaDu and Ca9-22 cells were inoculated s.c. into the flanks of 8- to 10-week-old Nod-SCID mice (1×10^6 cells/mouse). The diameters of the resulting tumors were measured twice per week, and tumor volume was calculated as follows: large diameter×(small diameter)^2×0.52. When tumors reached a mean volume of 350 mm^3, mice with similarly sized tumors were randomized into treatment cohorts (n=8 mice/group). Therapeutic regimens were injected intravenously (i.v.) as PBS, non-targeted liposomal drugs, or EGFR-s10 conjugated LTLs at 1 mg/kg, twice a week for 4 weeks, with a cumulative dose of 8 mg/kg for each group. The tumor volume was monitored twice a week. Premature death endpoints included weight loss greater than 5 g, inability to eat, or tumor volume exceeding 2000 mm^3.
The LTL treatment confers a statistically significant survival advantage over the non-targeting liposome (p=0.00153) and the median survival time of LTL group was 1.5-times longer than that of NTL group (94 days versus 60 days, respectively; FIG. 5D, upper and lower panels). We also tested singlet vinorelbine treatment in forms of free drug, NTL or LTL, with a dose of 1.5 mg/kg twice a week for 4 weeks in subcutaneously Ca9-22-xenografted NOD/SCID mice.

Series [5] relates to Ca9-22 cells. In words: In vitro cytotoxicity assay (WST-1), Ca9-22. It is filed as cell-based, human. As to the method: (§5) FaDu and Ca9-22 cells were incubated with various concentrations of non-targeted liposomal drugs, or EGFR-s10-conjugated LTLs for 4, 8, 16 and 24 hr. The medium was replaced with complete medium for 48 hr, and 4-[3-(4-iodophenyl)-2-(4-nitrophenyl)-2H-5-tetrazolio]-1,3-benzene disulfonate (WST-1) was added at 0.5 mg/ml. After the cells were incubated for 3 hr at 37° C., the reaction products' absorbance at 440-nm was measured, and half maximal inhibitory concentrations (IC50) were calculated.
(§6) The cytotoxicity of EGFR-s10-conjugated LTLs was compared to that of non-targeting counterparts in human SCCHN cell lines. Cell viability was analyzed by the WST-1 assay and calculated as percentage of living cells.
(In general: Tetrazolium assays rely on reduction of a dye to a coloured formazan, in cell work by metabolically active cells.)

For series [6], the system named is FaDu cells. In words: In vitro cytotoxicity assay (WST-1), FaDu. It is filed as cell-based, human. As to the method:
as §5, §6

A short description of series [7]: Zeta-potential by laser Doppler electrophoresis. Type of series: physicochemical. As to the method: as §4

B1: EGFR-s10: soluble scFv generated from phage clone EGFR-PC10; amino acid sequence SEQ ID NO: 9 (protein)
scFv: EVQLVESGGGLVQPGGSLRLSCAASGFNLSSFWMSWVRQAPGKGLEWVANINHDGSDKYYVDSVKGRFSISRDNTKNSVYLQMDSLRGEDTAVYYCAKGKSLYDGSALDMWGQGTMVTVSSGGGGSGGGGSGGGGSDIVMTQSPSTLSASVGDRVTITCRASQTIGRWLAWYQQKPGKAPKLLIYGASSLQSGVPSRFSGSGSGTDFTLTISSLQPEDFATYYCQQSYSTLWTFGQGTKLEIKR
modifications: Whole scFv
With B1, in the series with human EGFR-Ex-Fc, the “recognition of human EGFR-Ex-Fc” value is on record as “recognized”. The binding to cells result in the series on Ca9-22 cells [1] (Ca9-22, 4° C.) was “bound to the cell membrane”; in the series with FaDu cells [2] (4° C.), “bound to the cell membrane”. For the same molecule, the internalization result is listed as “Internalization of EGFR-s10 (scFvs) as cytoplasmic aggregates was observed” with Ca9-22 cells [1] (Ca9-22, 37° C.) and “Internalization of EGFR-s10 (scFvs) as cytoplasmic aggregates was observed” in the series with FaDu cells [2] (37° C.). Besides, in the series with marine EGFR-Ex-Fc, the “recognition of marine EGFR-Ex-Fc” value is on record as “recognized”.

B2: EGFR-s10-LV (conjugate)
scFv: EVQLVESGGGLVQPGGSLRLSCAASGFNLSSFWMSWVRQAPGKGLEWVANINHDGSDKYYVDSVKGRFSISRDNTKNSVYLQMDSLRGEDTAVYYCAKGKSLYDGSALDMWGQGTMVTVSSGGGGSGGGGSGGGGSDIVMTQSPSTLSASVGDRVTITCRASQTIGRWLAWYQQKPGKAPKLLIYGASSLQSGVPSRFSGSGSGTDFTLTISSLQPEDFATYYCQQSYSTLWTFGQGTKLEIKR
modifications: left off: small tags and cut ends
The molecule B2 registered a Z-average in [3] of 115.2 nm·days. In addition, the “mean tumor volume compared to NTL vinorelbine” value in series [4] is reported as “smaller”. For the same molecule, the weight loss result in series [4] is on record as “no weight loss was observed”. Further, the entries for the “IC50 relative to non-targeting liposome” value in the series on Ca9-22 cells [5] and in the series with FaDu cells [6] were 0.14 fold and 0.21 fold, respectively. Also, in [7], the ζ-potential was −29.2 mV.

B3: EGFR-s10-LD (conjugate)
scFv: EVQLVESGGGLVQPGGSLRLSCAASGFNLSSFWMSWVRQAPGKGLEWVANINHDGSDKYYVDSVKGRFSISRDNTKNSVYLQMDSLRGEDTAVYYCAKGKSLYDGSALDMWGQGTMVTVSSGGGGSGGGGSGGGGSDIVMTQSPSTLSASVGDRVTITCRASQTIGRWLAWYQQKPGKAPKLLIYGASSLQSGVPSRFSGSGSGTDFTLTISSLQPEDFATYYCQQSYSTLWTFGQGTKLEIKR
modifications: left off: small tags and cut ends
In series [3], B3 showed a Z-average of 125 nm·days. The “IC50 relative to non-targeting liposome” value is on record as 0.0028 fold in the series on Ca9-22 cells [5] and 0.33 fold in the series with FaDu cells [6]. In addition, the ζ-potential in [7] is −28.1 mV.
